Bridge positions count the residues as written; N and C are the ends. Ends that are not written are not given here.
T1: Alexa-488 labeled PIVKA-II Gla domain peptide (13-27) (human, disulfide 5-10 (inferred); also: labelled with Alexa Fluor 488 TFP ester, site not given here)
T1 construct: also called Alexa488-PIVKA-II (13-27); Alexa488-PIVKA-II peptide (13-27 cyc)
T1 peptide: LERECVEETCSYEEA

B1: monoclonal antibody 3C10 (produced by hybridoma cell line ATCC deposit designation PTA-9638) (antibody, V domains shown)
VH: EVQLVESGGDLVKPGGSLKLSCAASGFTFSSYGMSWVRQTPDKRLEWVATISRGGSSTYYPDSVKGRFTISRDNAKNNLYLQMSSLKSEDTAMYYCASLNYGNFFDYWGQGTTLTVSS
VL: DVVMTQTPLSLPVSLGDQASISCRSSQSLVHSNGNTYLHWYLQKPGQSPKLLIYKVSNRFSGVPDRFSGSGSGTDFTLKISRVEAEDLGVYFCSQNRHVPPTFGGGTKLEIKR

The binders below were run against B1 (assay: FCS competition: 2 nM Alexa488-PIVKA-II (13-27) premixed with 10 nM mAb 3C10, analog peptide added, overnight; D of the tracer (high D = tracer displaced)).

Apparent Diffusion Coefficient (D)	Binder
48 um^2/sec	LERECMEEKCSFEEA (disulfide 5-10 (inferred)) [13-27 Gla domain PIVKA IX peptide]
53 um^2/sec	LERECIEEICDFEEA (disulfide 5-10 (inferred)) [13-27 Gla domain PIVKA Protein C peptide]
50 um^2/sec	LERECIEELCNKEEA (disulfide 5-10 (inferred)) [13-27 Gla domain PIVKA Protein S peptide]
51 um^2/sec	LEKECYEEICVYEEA (disulfide 5-10 (inferred)) [13-27 Gla domain PIVKA Protein Z peptide]
52 um^2/sec	LERECMEETCSYEEA (disulfide 5-10 (inferred)) [13-27 Gla domain PIVKA Factor X peptide]
49 um^2/sec	LERECKEEQCSFEEA (disulfide 5-10 (inferred)) [13-27 Gla domain PIVKA Factor VII peptide]

Target: T1, Alexa-488 labeled PIVKA-II Gla domain …
Assay: fluorescence quenching titration: BHQ-labelled mAb 3C10 titrated against 0.05 nM Alexa488 PIVKA-II peptide (13-27)

EC50 (read off the curve)	Binder
~100 pM	B1
